Source: patent US20140087995A1 (published 2014)
Bridge positions count the residues as written; N and C are the ends. Side chains are listed from the residue outwards. Ends that are not written are not given here. * marks the point of attachment. C20 diacid = O=C(O)CCCCCCCCCCCCCCCCCCC(=O)*; AEEA = NCCOCCOCC(=O)O

Columns and labels:
[1] = target: T1, rat amylin receptor (rat calcitonin receptor + rat RAMP 3) (rat, UniProt P32214 25-516; Q9JJ73 23-147); assay: SPA competition with 125I-rat amylin on membranes of BHK tk'ts 13 cells with rat calcitonin receptor + rat RAMP3 (Assay VI)
T1 construct: whole, on cells; Membranes of transiently transfected BHK tk'ts 13 cells; also called rAmylin-R; rat amylin 3(a) receptor
T1 sequence (looked up) 1: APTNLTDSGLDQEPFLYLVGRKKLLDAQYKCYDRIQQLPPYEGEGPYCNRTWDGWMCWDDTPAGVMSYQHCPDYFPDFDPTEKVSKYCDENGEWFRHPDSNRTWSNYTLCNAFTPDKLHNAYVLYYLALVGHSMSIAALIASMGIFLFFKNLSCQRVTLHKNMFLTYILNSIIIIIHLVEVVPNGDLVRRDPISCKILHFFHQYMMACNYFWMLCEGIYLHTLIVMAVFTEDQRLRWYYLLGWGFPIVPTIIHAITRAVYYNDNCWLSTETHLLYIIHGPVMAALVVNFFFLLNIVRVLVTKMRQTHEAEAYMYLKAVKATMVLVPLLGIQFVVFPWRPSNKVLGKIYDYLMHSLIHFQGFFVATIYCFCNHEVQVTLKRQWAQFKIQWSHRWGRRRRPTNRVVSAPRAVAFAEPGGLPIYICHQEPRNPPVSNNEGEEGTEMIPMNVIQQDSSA
T1 sequence (looked up) 2: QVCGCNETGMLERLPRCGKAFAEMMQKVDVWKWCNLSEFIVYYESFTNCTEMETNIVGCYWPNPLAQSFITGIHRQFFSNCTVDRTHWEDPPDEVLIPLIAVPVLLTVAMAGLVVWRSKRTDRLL

[2] = target: T2, human calcitonin receptor (human, UniProt P30988 25-474); assay: ratio of IC50 on human calcitonin receptor to IC50 on human amylin receptor (reference m42), SPA competition
T2 construct: whole, on cells; Membranes of stably transfected cells; also called hCTR; hCT
T2 sequence (looked up): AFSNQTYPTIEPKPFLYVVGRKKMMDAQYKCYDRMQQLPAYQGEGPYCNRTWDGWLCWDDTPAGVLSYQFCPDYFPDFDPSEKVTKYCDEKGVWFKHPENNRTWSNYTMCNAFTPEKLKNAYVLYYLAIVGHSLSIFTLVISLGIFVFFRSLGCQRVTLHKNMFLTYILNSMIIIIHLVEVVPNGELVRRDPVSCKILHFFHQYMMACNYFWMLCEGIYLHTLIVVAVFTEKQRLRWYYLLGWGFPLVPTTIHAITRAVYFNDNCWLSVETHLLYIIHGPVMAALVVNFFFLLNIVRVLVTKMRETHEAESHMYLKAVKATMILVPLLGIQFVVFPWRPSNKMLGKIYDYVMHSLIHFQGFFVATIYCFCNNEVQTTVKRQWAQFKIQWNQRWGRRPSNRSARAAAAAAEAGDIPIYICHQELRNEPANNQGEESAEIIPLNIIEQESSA
Procedure: The resulting pellet was resuspended, homogenized and centrifuged (20.000 rpm, 15 min) in a buffer containing 20 mM Na-HEPES and 0.1 mM EDTA (pH 7.4, buffer 2). The resulting pellet was resuspended in buffer 2 and protein concentration was measured (BCA protein Assay, Pierce). The homogenate was kept cold during the whole procedure. The membranes were kept at −80° C. until use. The assay was performed in a 384 well Optiplate (PerkinElmer) in a total volume of 40 ul. Membranes were mixed with SPA beads. Final concentration of membranes 35 ng/μL final and SPA beads was 0.05 mg/well. Test-compounds were dissolved in DMSO and further diluted in assay buffer (50 mM Hepes, pH 7.4, 1 mM CaCl2, 5 mM MgCl₂, 0.1% OA and 0.02% Tween20). […] The final mixture was incubated with shaking at 400 rpm for 120 min at 25° C. prior to centrifugation (1500 rpm, 10 min). Samples were analyzed on TopCounter™ (Packard). The IC₅₀ was calculated using (one site binding competition analysis) GraphPad Prism5 as a measure of receptor affinity.
Membranes were prepared in the following way; the cells were rinsed with PBS and incubated with Versene for approximately 5 min before harvesting. The cells were flushed with PBS and the cell-suspension was centrifuged for 5 min at 1000 rpm. Cells were homogenized (Ultrathurrax) in a buffer containing 20 mM Na-HEPES and 10 mM EDTA (pH 7.4) and centrifuged at 20.000 rpm for 15 min. The resulting pellet was resuspended, homogenized and centrifuged (20.000 rpm, 15 min) in a buffer containing 20 mM Na-HEPES and 0.1 mM EDTA (pH 7.4, buffer 2). The resulting pellet was resuspended in buffer 2 and protein concentration was measured (BCA protein Assay, Pierce). The homogenate was kept cold during the whole procedure. The membranes were kept at −80° C. until use. Assay was performed in a 384 well Optiplate (PerkinElmer) in a total volume of 40 ul. Membranes were mixed with SPA beads.

rat calcitonin receptor [3] = target: T3, rat calcitonin receptor (rat, UniProt P32214 25-516); assay: SPA competition with 125I-calcitonin on membranes of BHK tk'ts 13 cells with rat calcitonin receptor (Assay VIII)
T3 construct: whole, on cells; Membranes of transiently transfected BHK tk'ts 13 cells; also called rCTR; rat calcitonin (a) receptor
T3 sequence (looked up): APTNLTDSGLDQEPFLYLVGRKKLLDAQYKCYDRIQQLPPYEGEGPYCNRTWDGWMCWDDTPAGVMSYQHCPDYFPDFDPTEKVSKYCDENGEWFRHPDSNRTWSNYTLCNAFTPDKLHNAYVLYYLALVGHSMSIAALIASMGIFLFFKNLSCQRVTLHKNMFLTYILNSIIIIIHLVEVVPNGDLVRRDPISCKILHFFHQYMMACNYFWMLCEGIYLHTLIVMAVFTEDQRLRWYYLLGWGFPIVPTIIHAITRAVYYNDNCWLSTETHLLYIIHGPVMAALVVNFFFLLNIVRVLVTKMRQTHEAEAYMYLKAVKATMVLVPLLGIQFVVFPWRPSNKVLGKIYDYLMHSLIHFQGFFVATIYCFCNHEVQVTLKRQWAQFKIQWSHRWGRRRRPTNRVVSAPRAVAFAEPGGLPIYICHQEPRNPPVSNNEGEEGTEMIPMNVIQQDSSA

rat calcitonin receptor [4] = target: T3, rat calcitonin receptor; assay: ratio of IC50 on rat calcitonin receptor to IC50 on rat amylin receptor (reference m40)

B1: N^ε1-[2-[2-[2-(19-carboxynonadecanoylamino)ethoxy]ethoxy]acetyl]-[His14,Arg17,Pro21,Pro27]-h-amylin (peptide)
peptide: K([AEEA-C20 diacid])CNTATCATQRLAHFLRHSSPNFGAIPSSTNVGSNTY-NH2
modifications: disulfide 2-7; N-terminus assumed
SMILES: CC[C@H](C)[C@H](NC(=O)[C@H](C)NC(=O)CNC(=O)[C@H](Cc1ccccc1)NC(=O)[C@H](CC(N)=O)NC(=O)[C@@H]1CCCN1C(=O)[C@H](CO)NC(=O)[C@H](CO)NC(=O)[C@H](Cc1c[nH]cn1)NC(=O)[C@H](CCCNC(=N)N)NC(=O)[C@H](CC(C)C)NC(=O)[C@H](Cc1ccccc1)NC(=O)[C@H](Cc1c[nH]cn1)NC(=O)[C@H](C)NC(=O)[C@H](CC(C)C)NC(=O)[C@H](CCCNC(=N)N)NC(=O)[C@H](CCC(N)=O)NC(=O)[C@@H](NC(=O)[C@H](C)NC(=O)[C@@H]1CSSC[C@H](NC(=O)[C@@H](N)CCCCNC(=O)COCCOCCNC(=O)CCCCCCCCCCCCCCCCCCC(=O)O)C(=O)N[C@@H](CC(N)=O)C(=O)N[C@@H]([C@@H](C)O)C(=O)N[C@@H](C)C(=O)N[C@@H]([C@@H](C)O)C(=O)N1)[C@@H](C)O)C(=O)N1CCC[C@H]1C(=O)N[C@@H](CO)C(=O)N[C@@H](CO)C(=O)N[C@H](C(=O)N[C@@H](CC(N)=O)C(=O)N[C@H](C(=O)NCC(=O)N[C@@H](CO)C(=O)N[C@@H](CC(N)=O)C(=O)N[C@H](C(=O)N[C@@H](Cc1ccc(O)cc1)C(N)=O)[C@@H](C)O)C(C)C)[C@@H](C)O
notes: Synthetic acylated analogue of human amylin; also called compound 90
IC50 [1]: 0.246 nM | Ratio hCT/hAmylin binding [2]: 42.2 | IC50 (rat calcitonin receptor [3]): 18.2 nM | Ratio rCT/rAmylin binding (rat calcitonin receptor [4]): 74.1

B2: N^ε1-[2-[2-[2-(19-carboxynonadecanoylamino)ethoxy]ethoxy]acetyl]-[Arg17,Pro21,Pro27,His34]-h-amylin (peptide)
peptide: K([AEEA-C20 diacid])CNTATCATQRLANFLRHSSPNFGAIPSSTNVGHNTY-NH2
modifications: disulfide 2-7; N-terminus assumed
SMILES: CC[C@H](C)[C@H](NC(=O)[C@H](C)NC(=O)CNC(=O)[C@H](Cc1ccccc1)NC(=O)[C@H](CC(N)=O)NC(=O)[C@@H]1CCCN1C(=O)[C@H](CO)NC(=O)[C@H](CO)NC(=O)[C@H](Cc1c[nH]cn1)NC(=O)[C@H](CCCNC(=N)N)NC(=O)[C@H](CC(C)C)NC(=O)[C@H](Cc1ccccc1)NC(=O)[C@H](CC(N)=O)NC(=O)[C@H](C)NC(=O)[C@H](CC(C)C)NC(=O)[C@H](CCCNC(=N)N)NC(=O)[C@H](CCC(N)=O)NC(=O)[C@@H](NC(=O)[C@H](C)NC(=O)[C@@H]1CSSC[C@H](NC(=O)[C@@H](N)CCCCNC(=O)COCCOCCNC(=O)CCCCCCCCCCCCCCCCCCC(=O)O)C(=O)N[C@@H](CC(N)=O)C(=O)N[C@@H]([C@@H](C)O)C(=O)N[C@@H](C)C(=O)N[C@@H]([C@@H](C)O)C(=O)N1)[C@@H](C)O)C(=O)N1CCC[C@H]1C(=O)N[C@@H](CO)C(=O)N[C@@H](CO)C(=O)N[C@H](C(=O)N[C@@H](CC(N)=O)C(=O)N[C@H](C(=O)NCC(=O)N[C@@H](Cc1c[nH]cn1)C(=O)N[C@@H](CC(N)=O)C(=O)N[C@H](C(=O)N[C@@H](Cc1ccc(O)cc1)C(N)=O)[C@@H](C)O)C(C)C)[C@@H](C)O
notes: Synthetic acylated analogue of human amylin; also called compound 91
IC50 [1]: 0.386 nM | Ratio hCT/hAmylin binding [2]: 101 | IC50 (rat calcitonin receptor [3]): 29.4 nM | Ratio rCT/rAmylin binding (rat calcitonin receptor [4]): 76.3
